We go through one substance from paper PMC6858569.

What is called stoichiometry N is a count of units in the complex or per binding partner.

The target in this test is mouse TRPV3 with the single residue substitution Y564A (mouse). The experiment in a line: cryo-EM structure.

Regarding “mouse TRPV3 with the single residue substitution Y564A (natural protein)”, the stoichiometry N came to 4.
